Target: the molecule itself
Assay: cryo-EM structure; single-particle cryo-EM with bumetanide; low [Cl-] buffer: 20 mM HEPES pH 7.4, 50 mM Na2SO4, 25 mM K2SO4, 5 mM NaCl, 0.06% digitonin, bumetanide to 500 uM

| Protein | stoichiometry N |
| --- | --- |
| NKCC1iii (full-length human NKCC1 with K289N, A492E and L671C mutations) (natural protein, UniProt P55011 1-1212, looked up, Human Na-K-2Cl cotransporter NKCC1, full length, with K289N, A492E and L671C; MBP followed by a TEV site was fused immediately before the N-terminus and removed with TEV protease before size exclusion and cryo-EM; Residues 927-1021 are not defined in the model; also called Lys289Asn/Ala492Glu/Leu671Cys NKCC1 transporter; NKCCiii; source: HEK293S GnTI-/- cells (BacMam system), purified (amylose …)) MEPRPTAPSSGAPGLAGVGETPSAAALAAARVELPGTAVPSVPEDAAPASRDGGGVRDEGPAAAGDGLGRPLGPTPSQSRFQVDLVSENAGRAAAAAAAAAAAAAAAGAGAGAKQTPADGEASGESEPAKGSEEAKGRFRVNFVDPAASSSAEDSLSDAAGVGVDGPNVSFQNGGDTVLSEGSSLHSGGGGGSGHHQHYYYDTHTNTYYLRTFGHNTMDAVPRIDHYRHTAAQLGEKLLRPSLAELHDELEKEPFEDGFANGEESTPTRDAVVTYTAESKGVVKFGWINGVLVRCMLNIWGVMLFIRLSWIVGQAGIGLSVLVIMMATVVTTITGLSTSAIATNGFVRGGGAYYLISRSLGPEFGGAIGLIFAFANAVAVAMYVVGFAETVVELLKEHSILMIDEINDIRIIGAITVVILLGISVAGMEWEAKAQIVLLVILLLAIGDFVIGTFIPLESKKPKGFFGYKSEIFNENFGPDFREEETFFSVFEIFFPAATGILAGANISGDLADPQSAIPKGTLLAILITTLVYVGIAVSVGSCVVRDATGNVNDTIVTELTNCTSAACKLNFDFSSCESSPCSYGLMNNFQVMSMVSGFTPLISAGIFSATLSSALASLVSAPKIFQALCKDNIYPAFQMFAKGYGKNNEPLRGYILTFLIALGFILIAECNVIAPIISNFFLASYALINFSVFHASLAKSPGWRPAFKYYNMWISLLGAILCCIVMFVINWWAALLTYVIVLGLYIYVTYKKPDVNWGSSTQALTYLNALQHSIRLSGVEDHVKNFRPQCLVMTGAPNSRPALLHLVHDFTKNVGLMICGHVHMGPRRQAMKEMSIDQAKYQRWLIKNKMKAFYAPVHADDLREGAQYLMQAAGLGRMKPNTLVLGFKKDWLQADMRDVDMYINLFHDAFDIQYGVVVIRLKEGLDISHLQGQEELLSSQEKSPGTKDVVVSVEYSKKSDLDTSKPLSEKPITHKVEEEDGKTATQPLLKKESKGPIVPLNVADQKLLEASTQFQKKQGKNTIDVWWLFDDGGLTLLIPYLLTTKKKWKDCKIRVFIGGKINRIDHDRRAMATLLSKFRIDFSDIMVLGDINTKPKKENIIAFEEIIEPYRLHEDDKEQDIADKMKEDEPWRITDNELELYKTKTYRQIRLNELLKEHSSTANIIVMSLPVARKGAVSSALYMAWLEALSKDLPPILLVRGNHQSVLTFYS | 2 |
| NKCC1ii (full-length human NKCC1 with K289N and A492E mutations) (natural protein, UniProt P55011 1-1212, looked up, Human Na-K-2Cl cotransporter NKCC1, full length, with K289N and A492E; MBP followed by a TEV site was fused immediately before the N-terminus and removed with TEV protease before size exclusion and cryo-EM; also called NKCCii; source: HEK293S GnTI-/- cells (BacMam system), purified (amylose resin, TEV protease, Superose 6) in digitonin; not shown: MBP, N-terminal, cleaved) MEPRPTAPSSGAPGLAGVGETPSAAALAAARVELPGTAVPSVPEDAAPASRDGGGVRDEGPAAAGDGLGRPLGPTPSQSRFQVDLVSENAGRAAAAAAAAAAAAAAAGAGAGAKQTPADGEASGESEPAKGSEEAKGRFRVNFVDPAASSSAEDSLSDAAGVGVDGPNVSFQNGGDTVLSEGSSLHSGGGGGSGHHQHYYYDTHTNTYYLRTFGHNTMDAVPRIDHYRHTAAQLGEKLLRPSLAELHDELEKEPFEDGFANGEESTPTRDAVVTYTAESKGVVKFGWINGVLVRCMLNIWGVMLFIRLSWIVGQAGIGLSVLVIMMATVVTTITGLSTSAIATNGFVRGGGAYYLISRSLGPEFGGAIGLIFAFANAVAVAMYVVGFAETVVELLKEHSILMIDEINDIRIIGAITVVILLGISVAGMEWEAKAQIVLLVILLLAIGDFVIGTFIPLESKKPKGFFGYKSEIFNENFGPDFREEETFFSVFEIFFPAATGILAGANISGDLADPQSAIPKGTLLAILITTLVYVGIAVSVGSCVVRDATGNVNDTIVTELTNCTSAACKLNFDFSSCESSPCSYGLMNNFQVMSMVSGFTPLISAGIFSATLSSALASLVSAPKIFQALCKDNIYPAFQMFAKGYGKNNEPLRGYILTFLIALGFILIAELNVIAPIISNFFLASYALINFSVFHASLAKSPGWRPAFKYYNMWISLLGAILCCIVMFVINWWAALLTYVIVLGLYIYVTYKKPDVNWGSSTQALTYLNALQHSIRLSGVEDHVKNFRPQCLVMTGAPNSRPALLHLVHDFTKNVGLMICGHVHMGPRRQAMKEMSIDQAKYQRWLIKNKMKAFYAPVHADDLREGAQYLMQAAGLGRMKPNTLVLGFKKDWLQADMRDVDMYINLFHDAFDIQYGVVVIRLKEGLDISHLQGQEELLSSQEKSPGTKDVVVSVEYSKKSDLDTSKPLSEKPITHKVEEEDGKTATQPLLKKESKGPIVPLNVADQKLLEASTQFQKKQGKNTIDVWWLFDDGGLTLLIPYLLTTKKKWKDCKIRVFIGGKINRIDHDRRAMATLLSKFRIDFSDIMVLGDINTKPKKENIIAFEEIIEPYRLHEDDKEQDIADKMKEDEPWRITDNELELYKTKTYRQIRLNELLKEHSSTANIIVMSLPVARKGAVSSALYMAWLEALSKDLPPILLVRGNHQSVLTFYS | 2 |

Reference: publication PMC9117670, “Structural basis for inhibition of the Cation-chloride cotransporter NKCC1 by the diuretic drug bumetanide” (Nature Communications, 2022)
